This test addresses T1, parathyroid hormone 1 receptor (PTH1R), C-tagged Citrine (human, UniProt Q03431 27-593).
T1 sequence: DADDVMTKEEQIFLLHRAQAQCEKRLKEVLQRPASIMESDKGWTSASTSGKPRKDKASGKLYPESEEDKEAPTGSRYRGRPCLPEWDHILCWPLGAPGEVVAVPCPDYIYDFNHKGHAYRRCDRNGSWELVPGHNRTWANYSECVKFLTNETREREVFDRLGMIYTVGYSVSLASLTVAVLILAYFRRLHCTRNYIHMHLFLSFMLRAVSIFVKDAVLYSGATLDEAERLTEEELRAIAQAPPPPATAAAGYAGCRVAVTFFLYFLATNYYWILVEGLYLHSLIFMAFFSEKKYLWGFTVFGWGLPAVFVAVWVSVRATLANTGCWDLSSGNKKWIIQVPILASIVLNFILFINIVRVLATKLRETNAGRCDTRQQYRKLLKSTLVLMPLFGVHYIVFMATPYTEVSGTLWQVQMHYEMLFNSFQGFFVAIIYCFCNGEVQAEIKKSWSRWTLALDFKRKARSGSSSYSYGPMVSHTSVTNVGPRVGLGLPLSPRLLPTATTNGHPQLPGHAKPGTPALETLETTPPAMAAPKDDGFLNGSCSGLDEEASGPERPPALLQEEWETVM
Description: FRET or BRET. (In general: Bioluminescence resonance energy transfer reports proximity on the nanometre scale.)

Experimental findings from publication doi:10.1101/2024.04.16.588673 (bioRxiv, 2024) are described below.

B1: receptor activity-modifying protein 2 (RAMP2), C-tagged Cerulean (natural protein)
chain: QPLPTTGTPGSEGGTVKNYETAVQFCWNHYKDQMDPIEKDWCDWAMISRPYSTLRDCLEHFAELFDLGFPNPLAERIIFETHQIHFANCSLVQPTFSDPPEDVLLAMIIAPICLIPFLITLVVWRSKDSEAQA
For B1, the “stoichiometry N” value was ~1 RAMP2 per PTH1R.

B2: receptor activity-modifying protein 3 (RAMP3), C-tagged Cerulean (natural protein)
chain: RAGGCNETGMLERLPLCGKAFADMMGKVDVWKWCNLSEFIVYYESFTNCTEMEANVVGCYWPNPLAQGFITGIHRQFFSNCTVDRVHLEDPPDEVLIPLIVIPVVLTVAMAGLVVWRSKRTDTLL
In the case of B2, the “stoichiometry N” value was ~2 RAMP3 per PTH1R.

As a reminder, the stoichiometry N is the number of molecules, sites or subunits per partner or assembly.
